Here are results for three molecules from patent US20250145705A1 (SHANDONG SIMCERE BIOPHARMACEUTICAL, published 2025).

“And” between values parts separate entries of the source, which are not always exact repeats. Identical values can stand only once.

In assay [1] the target is T1, human GPRC5D (human, UniProt Q9NZD1 1-345).
T1 construct: the cell line is named under assay; also called hGPRC5D; G protein coupled receptor C5 family subtype D
Kind of assay: FACS, HEK293T-hGPRC5D high pool.

Assay [2] has as its target monkey GPRC5D (monkey (cyno)). Kind of assay: FACS, HEK293T-cynoGPRC5D high pool. For orientation: Flow cytometry measures light scatter and fluorescence of single cells or particles in a stream.
Assay [3] addresses T1, human GPRC5D. Nature of the assay: FACS, CHOK1-hGPRC5D high pool.
Assay [4] concerns the target monkey GPRC5D (monkey (cyno)). Nature of the assay: FACS, CHOK1-cynoGPRC5D high pool.
In assay [5] the target is T1, human GPRC5D. Nature of the assay: FACS, RPMI-8226 cells. The method, then:
(§1) The desired cells were scale-up cultured in a T-75 cell culture flask to the logarithmic growth phase. NCI-H929, MolP-8 and RPMI-8226 cells were collected and washed with PBS buffer 2 times. After counting the cells, the cell pellet was resuspended with [PBS+2% (w/v) BSA] blocking solution to 2×10⁶ cells/ml, and added to a 96-well FACS reaction plate at 50 μl/well, and then the chimeric antibody test sample was added at 50 μl/well, and incubated on ice for 1 h. […] The obtained mixture was centrifuged and washed 3 times with a PBS buffer, and FACS (FACS CantoII, purchased from BD Company) was used for detection and result analysis. Data analysis was performed by software (Flowjo) to obtain the mean fluorescence intensity (MFI) of the cells. Then a software (GraphPad Prism8) was used for analysis, the analysis results are shown in Table 9 and FIGS. 9A-9C, 10A-10C and 11A-11C.

In assay [6] the target is hGPRC5D-LVP protein (human) (UniProt Q9NZD1). Kind of assay: competitive ELISA, competitor Biotin-5F11; antibody at 0 nM. In general terms: ELISA stands for enzyme-linked immunosorbent assay.
Assay [7] shares this target. Nature of the assay: competitive ELISA, competitor Biotin-5F11; antibody at 0.62 nM.
For assay [8] the target is unchanged. Nature of the assay: competitive ELISA, competitor Biotin-5F11; antibody at 5.56 nM.
For assay [9], the target named is T1, human GPRC5D. Nature of the assay: FACS, NCI-H929 cells. The method, then: as §1
Assay [10] has as its target hGPRC5D-LVP protein (human) (UniProt Q9NZD1). Kind of assay: competitive ELISA, competitor Biotin-5F11; antibody at 16.67 nM.
The target is the same in assay [11]. Nature of the assay: competitive ELISA, competitor Biotin-5F11; antibody at 0.07 nM.
The target of assay [12] is T1, human GPRC5D. Nature of the assay: FACS, MolP-8 cells.
Assay [13] concerns the target hGPRC5D-LVP protein (human) (UniProt Q9NZD1). Kind of assay: competitive ELISA, competitor Biotin-5F11; antibody at 1.85 nM.
Assay [14] shares this target. Kind of assay: competitive ELISA, competitor Biotin-5F11; antibody at 50.00 nM.
Assay [15] has the same target. Kind of assay: competitive ELISA, competitor Biotin-5F11; antibody at 0.21 nM.

As a reminder, the EC50 is the concentration needed to bring the measured effect to its halfway point.

T1 sequence (Q9NZD1 whole entry): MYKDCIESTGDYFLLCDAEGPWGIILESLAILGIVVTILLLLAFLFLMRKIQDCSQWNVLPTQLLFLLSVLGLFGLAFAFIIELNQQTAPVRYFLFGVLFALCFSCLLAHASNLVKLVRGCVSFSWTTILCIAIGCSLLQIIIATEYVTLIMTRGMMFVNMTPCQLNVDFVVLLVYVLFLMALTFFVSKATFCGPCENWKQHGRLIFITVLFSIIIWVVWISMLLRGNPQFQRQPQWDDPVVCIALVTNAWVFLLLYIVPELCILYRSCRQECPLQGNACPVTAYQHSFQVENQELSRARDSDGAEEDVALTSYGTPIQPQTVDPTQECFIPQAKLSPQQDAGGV
Chain of hGPRC5D-LVP protein (human) (Q9NZD1 whole entry): as above
Chain of monkey GPRC5D (monkey (cyno)) (Q9NZD1 other isoform, or with tags, fused parts or gaps): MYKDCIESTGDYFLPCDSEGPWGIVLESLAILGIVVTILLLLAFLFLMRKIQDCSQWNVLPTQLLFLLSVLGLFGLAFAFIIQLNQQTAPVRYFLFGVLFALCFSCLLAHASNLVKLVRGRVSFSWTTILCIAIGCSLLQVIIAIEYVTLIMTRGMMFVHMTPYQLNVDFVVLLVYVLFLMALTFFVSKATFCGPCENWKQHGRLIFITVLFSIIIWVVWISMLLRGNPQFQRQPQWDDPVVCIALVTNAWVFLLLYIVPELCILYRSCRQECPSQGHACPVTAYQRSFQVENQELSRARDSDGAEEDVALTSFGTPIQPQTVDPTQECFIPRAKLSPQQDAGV

In assay [1], IgG subtype control (antibody) came in with a Cell mean fluorescence density of 18.9. The Mean fluorescence density is 18.2 in assay [2] and 52.9 in [4]. For the same molecule, the Mean fluorescence intensity in assay [3] was 56.4.

On to anti-hel-hIgG1 (antibody), for which the Maximum mean fluorescence intensity in assay [5] is 108 and 106 and 85; in assay [9] it was 85 and 74; in assay [12], 81 and 103 and 90. Besides, the OD450 in [6] was 1.22 and 0.57 and 0.94; in assay [7], 1.2 and 0.67 and 0.88; in assay [8], 1.14 and 0.69 and 0.87; in [10], 1.15 and 0.65 and 0.9; in assay [11], 1.24 and 0.62 and 0.92; in assay [13], 1.16 and 0.7 and 0.89. For the same molecule, the OD450 in assay [14] is 1.16 and 0.63 and 0.89; in assay [15] it was 1.27 and 0.68 and 0.87.

B1: 5F11-hIgG1 (antibody, V domains shown)
VH: EVQLVESGGGLVQPGRSLKLSCAASGFSFSNYGMAWVRQAATKGLEWVASISTGGGNTYYRDSVKGRFIVSRDNAKNTQYLQMDSLRSEDTATYYCTRHDRGGLYWGQGVMVTVSS
VL: DIVMTQAPLSVSVTPGESASISCRSSKSLLHSNGITYVYWYFQKPGKSPQVLIYRMSNLASGVPDRFSGSGSETDFTLKISRVEAEDVGIYHCGQLLENPYTFGAGTELELKR
notes: Control antibody; VH and VL from WO 2019154890 A1 recombined into human IgG1 CH and CL expression vectors; also called h5F11-hIgG1; positive control antibody 5F11
With B1, the EC50 in [5] is 3.17 nM and 2.86 nM and 6.48 nM; in assay [9] it was 1.25 nM and 3.5 nM and 1.97 nM.
